Assay results taken from IntAct's records for PubMed 23348841.

B1: Nonsense-mediated mRNA decay factor SMG7 (Homo sapiens), Q92540 (parent)
chain: MSLQSAQYLRQAEVLKADMTDSKLGPAEVWTSRQALQDLYQKMLVTDLEYALDKKVEQDLWNHAFKNQITTLQGQAKNRANPNRSEVQANLSLFLEAASGFYTQLLQELCTVFNVDLPCRVKSSQLGIISNKQTHTSAIVKPQSSSCSYICQHCLVHLGDIARYRNQTSQAESYYRHAAQLVPSNGQPYNQLAILASSKGDHLTTIFYYCRSIAVKFPFPAASTNLQKALSKALESRDEVKTKWGVSDFIKAFIKFHGHVYLSKSLEKLSPLREKLEEQFKRLLFQKAFNSQQLVHVTVINLFQLHHLRDFSNETEQHTYSQDEQLCWTQLLALFMSFLGILCKCPLQNESQEESYNAYPLPAVKVSMDWLRLRPRVFQEAVVDERQYIWPWLISLLNSFHPHEEDLSSISATPLPEEFELQGFLALRPSFRNLDFSKGHQGITGDKEGQQRRIRQQRLISIGKWIADNQPRLIQCENEVGKLLFITEIPELILEDPSEAKENLILQETSVIESLAADGSPGLKSVLSTSRNLSNNCDTGEKPVVTFKENIKTREVNRDQGRSFPPKEVRRDYSKGITVTKNDGKKDNNKRKTETKKCTLEKLQETGKQNVAVQVKSQTELRKTPVSEARKTPVTQTPTQASNSQFIPIHHPGAFPPLPSRPGFPPPTYVIPPPVAFSMGSGYTFPAGVSVPGTFLQPTAHSPAGNQVQAGKQSHIPYSQQRPSGPGPMNQGPQQSQPPSQQPLTSLPAQPTAQSTSQLQVQALTQQQQSPTKAVPALGKSPPHHSGFQQYQQADASKQLWNPPQVQGPLGKIMPVKQPYYLQTQDPIKLFEPSLQPPVMQQQPLEKKMKPFPMEPYNHNPSEVKVPEFYWDSSYSMADNRSVMAQQANIDRRGKRSPGVFRPEQDPVPRMPFEKSLLEKPSELMSHSSSFLSLTGFSLNQERYPNNSMFNEVYGKNLTSSSKAELSPSMAPQETSLYSLFEGTPWSPSLPASSDHSTPASQSPHSSNPSSLPSSPPTHNHNSVPFSNFGPIGTPDNRDRRTADRWKTDKPAMGGFGIDYLSATSSSESSWHQASTPSGTWTGHGPSMEDSSAVLMESLKSIWSSSMMHPGPSALEQLLMQQKQKQQRGQGTMNPPH
partner: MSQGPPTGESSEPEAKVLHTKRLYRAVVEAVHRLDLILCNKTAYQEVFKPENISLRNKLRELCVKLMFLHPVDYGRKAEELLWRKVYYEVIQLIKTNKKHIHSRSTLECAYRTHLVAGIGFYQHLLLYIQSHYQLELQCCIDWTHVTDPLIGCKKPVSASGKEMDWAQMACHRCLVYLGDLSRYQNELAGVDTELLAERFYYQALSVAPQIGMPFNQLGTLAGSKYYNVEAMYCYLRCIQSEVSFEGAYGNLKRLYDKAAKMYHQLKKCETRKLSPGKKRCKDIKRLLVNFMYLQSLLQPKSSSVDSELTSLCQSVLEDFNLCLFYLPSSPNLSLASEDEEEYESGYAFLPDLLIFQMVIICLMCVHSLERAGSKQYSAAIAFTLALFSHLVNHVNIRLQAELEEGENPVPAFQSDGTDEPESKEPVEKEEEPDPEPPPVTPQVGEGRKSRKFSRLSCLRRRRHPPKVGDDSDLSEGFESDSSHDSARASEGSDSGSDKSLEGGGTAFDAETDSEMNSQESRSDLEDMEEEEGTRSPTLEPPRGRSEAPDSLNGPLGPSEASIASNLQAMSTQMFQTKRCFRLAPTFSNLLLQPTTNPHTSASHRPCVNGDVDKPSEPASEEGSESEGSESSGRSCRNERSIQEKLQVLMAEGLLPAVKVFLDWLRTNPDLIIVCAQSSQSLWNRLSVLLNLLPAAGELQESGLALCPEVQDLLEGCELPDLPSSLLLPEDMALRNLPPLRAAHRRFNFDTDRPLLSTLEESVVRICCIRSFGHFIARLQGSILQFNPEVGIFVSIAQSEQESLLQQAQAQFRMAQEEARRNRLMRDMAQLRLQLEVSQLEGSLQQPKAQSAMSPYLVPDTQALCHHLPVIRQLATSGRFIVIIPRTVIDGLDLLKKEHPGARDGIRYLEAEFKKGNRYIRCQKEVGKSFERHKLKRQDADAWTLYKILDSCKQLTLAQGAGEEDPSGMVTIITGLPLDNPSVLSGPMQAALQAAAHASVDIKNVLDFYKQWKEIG
B2: Nonsense-mediated mRNA decay factor SMG5 (Homo sapiens), Q9UPR3 (parent)
chain: B1 partner
partner: B1 chain

Variants of: B1
Details: with smg5_human SMG5, Q9UPR3

Variant | effect of a mutation on the interaction
G100E | disrupting interaction strength
T103E | disrupting interaction strength

Variants of: B2
Details: with smg7_human SMG7, Q92540

Variant | effect of a mutation on the interaction
G120E | disrupting interaction strength
